Data published in patent publication US20240318262A1 (TOHOKU UNIVERSITY, published 2024).

Biological target: T1, human LILRB4 in TIL regions of lung squamous cell carcinoma tissue specimens (human, UniProt Q8NHJ6 24-258)
T1 construct: Native LILRB4 on cells in patient tissue sections; also called immunosuppressive receptor LILRB4
Assay: immunohistochemical staining of lung squamous cell carcinoma tissue specimens
Experimental: Immunohistochemical staining was performed using the anti-human LILRB4 monoclonal antibody #10 obtained in Experimental Example 6, which inhibits binding between fibronectin and human LILRB4, on each of the lung squamous cell carcinoma tissue specimens whose LILRB4 expression was previously determined to be strongly positive (High), medium positive (Medium) or weakly positive (Low), with goat anti-human LILRB4 polyclonal antibodies (available from R & D Systems). The results are illustrated in FIG. 3.

binding result: binds
B1: anti-human LILRB4 monoclonal antibody #10 (antibody, V domains shown)
VH: EVMLVESGGGLVQPGGSRKLSCAASGFTFSSFGMHWVRQAPEKGLEWVAYISSGSSTIYYVDTVKGRFTISRDNPKNTLFLQMTSLRSEDTAMYYCARSTGTGAMDYWGQGTSVTVSS
VL: DIQMTQTTSSLSASLGDRVTISCRASQDISNYLNWYQQKPDGTVKLLIYYTLRLYSGVPSRFSGSGSGTDYSLTISNLEQEDIATYFCQQGNTLPWTFGGGTKLEIK
notes: In the reporter assay it was used as hybridoma culture supernatant; also called anti-LILRB4 monoclonal antibody
